Where two headings read alike, the source gives them in different places.
How the values were obtained:
Assay in all cases: EMSA
OGG1 WT (untagged) [1] = molecular target: T1, OGG1 WT (untagged) (human, UniProt O15527 1-345)
OGG1-Y203A (untagged) = OGG1-Y203A (untagged) (human, UniProt O15527 1-345, Y203A)
OGG1-2NA (untagged) [2] = molecular target: T2, OGG1-2NA (untagged) (human, UniProt O15527 1-345, N149A;N150A)
GST-OGG1-G245A = GST-OGG1-G245A (human, UniProt O15527 1-345, G245A)
OGG1 WT (untagged) [3] = molecular target: T1, OGG1 WT (untagged); remark: listed apart in the source
OGG1-2NA (untagged) [4] = molecular target: T2, OGG1-2NA (untagged); remark: listed apart in the source

T1 sequence (O15527 whole entry): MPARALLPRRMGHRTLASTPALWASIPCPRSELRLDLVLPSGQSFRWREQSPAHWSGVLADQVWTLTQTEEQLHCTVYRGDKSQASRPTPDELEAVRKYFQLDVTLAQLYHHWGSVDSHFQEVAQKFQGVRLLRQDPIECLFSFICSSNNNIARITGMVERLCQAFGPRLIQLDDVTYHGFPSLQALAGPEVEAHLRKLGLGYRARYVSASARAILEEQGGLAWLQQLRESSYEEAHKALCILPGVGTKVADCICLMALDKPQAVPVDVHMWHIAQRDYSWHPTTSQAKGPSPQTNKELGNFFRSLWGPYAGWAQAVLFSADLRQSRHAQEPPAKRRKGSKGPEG
Chain of GST-OGG1-G245A (O15527 whole entry G245A): as the sequence (O15527 whole entry) above, with G245A counted along it
T2 sequence (O15527 whole entry N149A/N150A): as the sequence (O15527 whole entry) above, with N149A, N150A counted along it
Chain of OGG1-Y203A (untagged) (O15527 whole entry Y203A): as the sequence (O15527 whole entry) above, with Y203A counted along it

B1: 24-mer G:C duplex (dsDNA)
DNA 1: CTGATCGATGACGCCTGACATGAT
DNA 2: ATCATGTCAGGCGTCATCGATCAG
OGG1 WT (untagged) [1]
  Kd: 2220 ± 220 nM
OGG1-Y203A (untagged)
  Kd: 1970 ± 270 nM
OGG1-2NA (untagged) [2]
  Kd: 602 ± 42 nM

B2: Cy5 34-mer 8-oxoG:C duplex (dsDNA)
DNA 1: GGCTTCATCGTTGTCGCAGACCTGGTGGATACCG
DNA 2: CGGTATCCACCAGGTCTGCGACAACGATGAAGCC
modifications: 8-oxoG at position 16 of strand 1 (opposite C)
GST-OGG1-G245A
  binding result: no binding

B3: Cy5 34-mer G:C duplex (dsDNA)
DNA 1: GGCTTCATCGTTGTCGCAGACCTGGTGGATACCG
DNA 2: CGGTATCCACCAGGTCTGCGACAACGATGAAGCC
GST-OGG1-G245A
  binding result: no binding

B4: 24-mer 8-oxoG:C duplex (dsDNA)
DNA 1: CTGATCGATGACGCCTGACATGAT
DNA 2: ATCATGTCAGGCGTCATCGATCAG
modifications: 8-oxoG at position 13 of strand 1 (opposite C)
OGG1 WT (untagged) [3]
  Kd: 0.42 ± 0.03 nM
OGG1-2NA (untagged) [4]
  Kd: 6.37 ± 0.58 nM

Reference: article PMC10250219
